Columns and labels:
Test in all cases: cell-based or functional assay
[1] = biological target: collagen IV/galectin-8 (hit ECM combination) (human) (UniProt P02462)
[2] = biological target: collagen I/laminin (hit ECM combination) (human) (UniProt P02452)
[3] = biological target: collagen II/galectin-4 (hit ECM combination) (human) (UniProt P02458)

Measured: reduction of cellular attachment after blocking the integrin with an antibody

Sequence of collagen II/galectin-4 (hit ECM combination) (human) (P02458 other isoform, or with tags, fused parts or gaps limits assumed, chain 1 of 2): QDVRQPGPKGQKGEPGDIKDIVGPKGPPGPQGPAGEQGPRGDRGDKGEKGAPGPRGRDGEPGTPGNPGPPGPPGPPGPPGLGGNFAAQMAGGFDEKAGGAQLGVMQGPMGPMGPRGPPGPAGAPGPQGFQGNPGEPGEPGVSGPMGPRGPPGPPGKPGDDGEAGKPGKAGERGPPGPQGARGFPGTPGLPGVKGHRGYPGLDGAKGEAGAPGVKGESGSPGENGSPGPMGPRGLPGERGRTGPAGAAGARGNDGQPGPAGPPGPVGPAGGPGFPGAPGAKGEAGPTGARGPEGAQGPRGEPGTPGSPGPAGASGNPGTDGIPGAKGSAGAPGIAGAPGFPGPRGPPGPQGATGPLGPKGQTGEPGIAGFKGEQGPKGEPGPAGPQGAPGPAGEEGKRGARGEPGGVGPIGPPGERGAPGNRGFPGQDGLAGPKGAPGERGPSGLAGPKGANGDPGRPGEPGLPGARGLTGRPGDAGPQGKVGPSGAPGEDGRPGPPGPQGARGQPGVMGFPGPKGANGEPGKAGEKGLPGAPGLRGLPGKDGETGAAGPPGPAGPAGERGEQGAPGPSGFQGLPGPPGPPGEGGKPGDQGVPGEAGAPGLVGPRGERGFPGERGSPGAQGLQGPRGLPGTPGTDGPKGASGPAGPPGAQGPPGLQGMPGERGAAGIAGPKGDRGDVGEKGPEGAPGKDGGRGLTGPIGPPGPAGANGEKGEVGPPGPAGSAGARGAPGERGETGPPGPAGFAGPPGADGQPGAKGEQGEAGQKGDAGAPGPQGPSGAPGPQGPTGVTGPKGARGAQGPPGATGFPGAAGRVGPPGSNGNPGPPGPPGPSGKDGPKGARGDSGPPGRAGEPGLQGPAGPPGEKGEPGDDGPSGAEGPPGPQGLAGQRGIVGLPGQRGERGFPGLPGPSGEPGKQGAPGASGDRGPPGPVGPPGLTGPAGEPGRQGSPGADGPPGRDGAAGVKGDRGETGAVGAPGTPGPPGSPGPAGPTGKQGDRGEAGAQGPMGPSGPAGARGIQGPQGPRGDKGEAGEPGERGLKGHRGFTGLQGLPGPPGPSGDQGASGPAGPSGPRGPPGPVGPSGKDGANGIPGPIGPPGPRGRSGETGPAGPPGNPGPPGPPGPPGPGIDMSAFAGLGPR
Sequence of collagen II/galectin-4 (hit ECM combination) (human) (chain, as listed by the source limits assumed, chain 2 of 2): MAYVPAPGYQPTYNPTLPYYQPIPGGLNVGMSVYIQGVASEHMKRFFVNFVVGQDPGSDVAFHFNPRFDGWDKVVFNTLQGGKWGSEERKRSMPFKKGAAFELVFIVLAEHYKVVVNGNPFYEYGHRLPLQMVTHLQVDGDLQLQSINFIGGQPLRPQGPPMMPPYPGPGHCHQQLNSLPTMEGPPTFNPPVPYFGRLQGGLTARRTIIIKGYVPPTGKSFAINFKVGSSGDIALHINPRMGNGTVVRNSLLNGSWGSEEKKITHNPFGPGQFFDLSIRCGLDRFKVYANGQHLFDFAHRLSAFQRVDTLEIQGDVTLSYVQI
Sequence of collagen I/laminin (hit ECM combination) (human) (P02452 162-1218 limits assumed, chain 1 of 2): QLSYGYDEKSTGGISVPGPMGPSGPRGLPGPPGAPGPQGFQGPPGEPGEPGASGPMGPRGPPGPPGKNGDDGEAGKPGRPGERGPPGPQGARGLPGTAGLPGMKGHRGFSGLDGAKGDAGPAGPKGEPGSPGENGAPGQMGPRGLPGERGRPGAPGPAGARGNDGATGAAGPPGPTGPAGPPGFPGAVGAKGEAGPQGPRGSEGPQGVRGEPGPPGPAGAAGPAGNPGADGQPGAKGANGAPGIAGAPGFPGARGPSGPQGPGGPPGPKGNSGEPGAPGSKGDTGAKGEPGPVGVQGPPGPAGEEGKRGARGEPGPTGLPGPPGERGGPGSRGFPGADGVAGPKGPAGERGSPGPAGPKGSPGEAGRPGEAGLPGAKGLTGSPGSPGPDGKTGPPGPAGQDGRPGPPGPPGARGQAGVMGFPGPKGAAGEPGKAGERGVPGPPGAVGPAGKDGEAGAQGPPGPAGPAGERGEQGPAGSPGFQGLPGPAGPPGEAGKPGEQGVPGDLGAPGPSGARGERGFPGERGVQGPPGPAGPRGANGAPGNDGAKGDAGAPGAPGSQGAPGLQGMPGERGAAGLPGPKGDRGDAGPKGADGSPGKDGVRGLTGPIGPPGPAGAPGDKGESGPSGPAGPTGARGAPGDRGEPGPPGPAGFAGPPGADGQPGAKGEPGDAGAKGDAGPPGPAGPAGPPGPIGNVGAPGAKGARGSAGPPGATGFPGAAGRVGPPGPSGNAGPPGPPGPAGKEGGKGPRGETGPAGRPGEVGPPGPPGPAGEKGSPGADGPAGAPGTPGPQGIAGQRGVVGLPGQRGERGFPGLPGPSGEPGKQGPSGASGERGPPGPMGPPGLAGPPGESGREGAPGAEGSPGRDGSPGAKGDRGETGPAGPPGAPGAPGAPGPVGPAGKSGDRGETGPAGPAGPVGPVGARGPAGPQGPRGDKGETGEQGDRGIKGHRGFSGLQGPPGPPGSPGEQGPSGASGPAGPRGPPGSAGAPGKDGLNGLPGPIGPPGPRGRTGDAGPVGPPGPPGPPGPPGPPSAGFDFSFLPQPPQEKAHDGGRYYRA
Sequence of collagen I/laminin (hit ECM combination) (human) (chain, as listed by the source limits assumed, chain 2 of 2): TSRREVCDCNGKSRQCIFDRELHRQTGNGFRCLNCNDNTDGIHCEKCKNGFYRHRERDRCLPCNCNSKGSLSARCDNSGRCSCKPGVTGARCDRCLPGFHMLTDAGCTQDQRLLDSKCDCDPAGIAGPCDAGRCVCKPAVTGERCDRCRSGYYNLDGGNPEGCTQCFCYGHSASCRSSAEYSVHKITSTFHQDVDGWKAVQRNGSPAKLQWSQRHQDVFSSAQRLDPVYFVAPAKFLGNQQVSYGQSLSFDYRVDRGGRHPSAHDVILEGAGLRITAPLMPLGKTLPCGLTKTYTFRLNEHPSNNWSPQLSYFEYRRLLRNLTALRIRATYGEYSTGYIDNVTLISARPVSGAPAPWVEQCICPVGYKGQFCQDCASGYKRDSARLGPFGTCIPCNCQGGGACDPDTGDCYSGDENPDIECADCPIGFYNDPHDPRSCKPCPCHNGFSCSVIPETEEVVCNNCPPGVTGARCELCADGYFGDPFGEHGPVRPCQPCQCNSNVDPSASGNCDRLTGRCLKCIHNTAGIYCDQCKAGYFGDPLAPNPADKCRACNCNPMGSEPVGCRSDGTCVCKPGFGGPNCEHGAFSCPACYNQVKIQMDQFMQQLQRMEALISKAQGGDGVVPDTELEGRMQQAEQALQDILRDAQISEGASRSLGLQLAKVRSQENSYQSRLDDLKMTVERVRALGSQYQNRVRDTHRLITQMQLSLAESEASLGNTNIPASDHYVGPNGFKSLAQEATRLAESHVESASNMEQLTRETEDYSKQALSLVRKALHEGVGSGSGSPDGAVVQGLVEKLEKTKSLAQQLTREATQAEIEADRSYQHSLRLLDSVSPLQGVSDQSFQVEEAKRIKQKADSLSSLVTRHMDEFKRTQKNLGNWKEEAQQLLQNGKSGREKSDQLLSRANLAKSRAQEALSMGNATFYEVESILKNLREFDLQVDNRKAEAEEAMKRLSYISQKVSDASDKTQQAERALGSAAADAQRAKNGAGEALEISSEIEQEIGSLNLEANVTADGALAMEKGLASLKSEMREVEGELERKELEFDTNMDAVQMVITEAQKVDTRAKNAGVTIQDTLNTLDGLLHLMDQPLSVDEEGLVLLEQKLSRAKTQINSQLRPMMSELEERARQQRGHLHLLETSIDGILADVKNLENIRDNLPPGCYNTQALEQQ

α1 integrin (from UniProt P56199 29-1179) (receptor)
50%: [1] | [2] | [3]

From patent US20130274124A1
